According to patent US20120093789, “Methods of Modulating Smooth Muscle Cell Proliferation and Differentiation” (published 2012):

T1: SRF (serum response factor) (UniProt Q9JM73 Q9JM73:1-504)
T1 sequence: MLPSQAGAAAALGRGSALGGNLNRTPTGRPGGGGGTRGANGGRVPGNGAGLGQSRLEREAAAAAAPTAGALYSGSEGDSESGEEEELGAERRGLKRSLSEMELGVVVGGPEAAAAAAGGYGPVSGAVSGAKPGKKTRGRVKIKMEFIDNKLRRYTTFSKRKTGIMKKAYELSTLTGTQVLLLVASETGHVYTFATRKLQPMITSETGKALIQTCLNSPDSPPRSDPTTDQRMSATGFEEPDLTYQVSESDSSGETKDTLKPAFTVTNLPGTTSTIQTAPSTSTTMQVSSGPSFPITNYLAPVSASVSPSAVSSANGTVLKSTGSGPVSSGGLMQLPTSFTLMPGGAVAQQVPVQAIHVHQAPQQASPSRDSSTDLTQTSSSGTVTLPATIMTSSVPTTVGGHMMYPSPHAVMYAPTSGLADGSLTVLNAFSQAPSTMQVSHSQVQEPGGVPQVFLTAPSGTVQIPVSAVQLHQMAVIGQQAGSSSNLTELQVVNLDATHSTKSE

B1: miR-143/145 enhancer SRF site mutant (dsDNA)
DNA 1: GGGAGCAGCCTTGCTACCGAAGGGCAGG
DNA 2: CCTGCCCTTCGGTAGCAAGGCTGCTCCC
B2: miR-143/145 enhancer SRF site (CArG) WT (dsDNA)
DNA 1: GGGAGCAGCCTTGCCATATAAGGGCAGG
DNA 2: CCTGCCCTTATATGGCAAGGCTGCTCCC

Assays:
[1] = target: T1, SRF (serum response factor); test: competition; cold mutant competitor; competition with WT or mutant probe indicates specificity of band
[2] = target: T1, SRF (serum response factor); test: EMSA; radiolabeled probe; cold WT competition

Binder | binding result [1] | binding result [2]
B1 | no binding | 
B2 |  | binds
